What all share (type): biochemical
Experiment [1] deals with human genomic DNA (about 1.3 kb) with dUTP added. In words: Evaluation of uracil (dUTP) sensitivity by PCR with dUTP added to the reaction. To be noted: addition of 0.5 μM of dUTP. Put shortly: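 Each enzyme (1 U) amplified about 1.3 kb from 10 ng human genomic DNA in KOD-Plus-Ver. 2 buffer with 1.5 mM MgSO4 and 0.2 mM dNTPs. dUTP was added at final 0.5, 5, 50, 100 and 200 μM, over 30 cycles of 98/65/68° C. Sensitivity is the dUTP level still yielding product on ethidium bromide-stained agarose gel.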

The test system of the next experiment is Psychrobacter DNA. Put plainly: PCR amplification using inosine-containing primers. To be noted: primers 75 pmol or 150 pmol, 35 cycles (FIG. 11). How it is done:
Using inosine-containing primers, the difference in PCR amplification was compared. For comparison, KOD mutants and KOD (wild-type), each mixed with 1 μg of a KOD antibody per U of the enzyme, and Taq DNA polymerase mixed with an antibody (a mixture of equal amounts of Taq DNA polymerase (produced by Toyobo Co. Ltd.) and Anti-Taq High (produced by Toyobo Co. Ltd.)) were used.
For PCR with the KOD mutants and PCR with the KOD, a buffer, MgSO4, and dNTPs included in KOD-Plus-Ver. 2 (produced by Toyobo Co. Ltd.) were used. 50 μl of individual reaction solutions containing 1× PCR buffer, 1.5 mM MgSO4, dNTPs (dATP, dTTP, dCTP, dGTP) in an amount of 0.2 mM, primers (SEQ ID NOs: 40 and 41) in an amount of 75 pmol or 150 pmol, 100 ng of Psychrobacter DNA, and 1 U of each respective enzyme mixed with the antibody were used. PCR was performed using a GeneAmp PCR system 9700 (Applied Biosystems) on the following schedule: preliminary reaction at 94° C. for 2 minutes, followed by 35 cycles, each cycle consisting of 98° C. for 10 seconds, 54° C. for 10 seconds, and 68° C. for 1 minute.
For PCR with the Taq DNA polymerase, 50 μl of a reaction solution containing 1× buffer included in Blend Taq (product of Toyobo), dNTPs (dATP, […], dCTP, dGTP) in an amount of 0.2 mM, primers in an amount of 75 pmol or 150 pmol (the same as above), 100 ng of Psychrobacter DNA, and 2.5 U of the enzyme mixed with the antibody was used. PCR was performed using a GeneAmp PCR system 9700 (Applied Biosystems) on the following schedule: preliminary reaction at 94° C. for 2 minutes, followed by 35 cycles, each cycle consisting of 94° C. for 30 seconds, 54° C. for 30 seconds, and 68° C. for 1 minute.
(§1) After the completion of each individual reaction, each of the resulting reaction solutions was analyzed using a DNA-1000 kit for MultiNA (produced by Shimadzu Corporation) to confirm amplified DNA fragments.

The subject of experiment [2] is bisulfite-treated human genomic DNA (MINT1, RAR, THBS1, MINT31). In words: PCR amplification of bisulfite-treated DNA. To be noted: 40 cycles (FIG. 12). The procedure:
Using bisulfite-treated DNA as a template and various primers, the difference in PCR amplification was compared. For comparison, KOD mutant (Y7A/V93K) and KOD (wild-type), each mixed with 1 μg of a KOD antibody per U of the enzyme, and Taq DNA polymerase mixed with an antibody (a mixture of equal amounts of Taq DNA polymerase (produced by Toyobo Co. Ltd.) and Anti-Taq High (produced by Toyobo Co. Ltd.)) were used.
The bisulfite-treated DNA used was human genomic DNA (produced by Roche) that had been treated with a MethylCode Bisulfite Conversion Kit of Invitrogen.
For PCR with the KOD mutant (Y7A/V93K) and PCR with the KOD, a buffer, MgSO4, and dNTPs included in KOD-Plus-Ver. 2 (produced by Toyobo Co. Ltd.) were used. 50 μl of individual reaction solutions containing 1× PCR buffer, 1.5 mM MgSO4, dNTPs (dATP, dTTP, dCTP, dGTP) in an amount of 0.2 mM, primers (SEQ ID NOs: 42 and 43 for amplification of MINT1; SEQ ID NOs: 44 and 45for amplification of RAR; SEQ ID NOs: 46 and 47 for amplification of THBS1; SEQ ID NOs: 48 and 49 for amplification of MINT31) in an amount of 15 pmol, 1 μl of bisulfite-treated DNA extract, and 1 U of each respective enzyme mixed with the antibody were used. PCR was performed using a GeneAmp PCR system 9700 (Applied Biosystems) on the following schedule: preliminary reaction at 94° C. for 2 minutes, followed by 40 cycles, each cycle consisting of 98° C. for 10 seconds, 55° C. for 15 seconds, and 68° C. for 1 minute.
For PCR with the Taq DNA polymerase, 50 μl of a reaction solution containing 1× buffer included in Blend Taq (product of Toyobo), dNTPs (dATP, […], dCTP, dGTP) in an amount of 0.2 mM, primers in an amount of 15 pmol (the same as above), 1 μl of bisulfite-treated DNA extract, and 2.5 U of the enzyme mixed with the antibody was used. […]
as §1

The record followed here is patent US20150218534A1, “MODIFIED DNA POLYMERASE” (TOYOBO CO., LTD., priority 2012, published 2015).

B1: KOD (wild-type): wild-type DNA polymerase from Thermococcus kodakaraensis (KOD) (protein, listed as Thermococcus kodakaraensis)
chain: MILDTDYITEDGKPVIRIFKKENGEFKIEYDRTFEPYFYALLKDDSAIEEVKKITAERHGTVVTVKRVEKVQKKFLGRPVEVWKLYFTHPQDVPAIRDKIREHPAVIDIYEYDIPFAKRYLIDKGLVPMEGDEELKMLAFDIETLYHEGEEFAEGPILMISYADEEGARVITWKNVDLPYVDVVSTEREMIKRFLRVVKEKDPDVLITYNGDNFDFAYLKKRCEKLGINFALGRDGSEPKIQRMGDRFAVEVKGRIHFDLYPVIRRTINLPTYTLEAVYEAVFGQPKEKVYAEEITTAWETGENLERVARYSMEDAKVTYELGKEFLPMEAQLSRLIGQSLWDVSRSSTGNLVEWFLLRKAYERNELAPNKPDEKELARRRQSYEGGYVKEPERGLWENIVYLDFRSLYPSIIITHNVSPDTLNREGCKEYDVAPQVGHRFCKDFPGFIPSLLGDLLEERQKIKKKMKATIDPIERKLLDYRQRAIKILANSYYGYYGYARARWYCKECAESVTAWGREYITMTIKEIEEKYGFKVIYSDTDGFFATIPGADAETVKKKAMEFLKYINAKLPGALELEYEGFYKRGFFVTKKKYAVIDEEGKITTRGLEIVRRDWSEIAKETQARVLEALLKDGDVEKAVRIVKEVTEKLSKYEVPPEKLVIHEQITRDLKDYKATGPHVAVAKRLAARGVKIRPGTVISYIVLKGSGRIGDRAIPFDEFDPTKHKYDAEYYIENQVLPAVERILRAFGYRKEDLRYQKTRQVGLSAWLKPKGT
For B1, the “PCR products on addition of dUTP” value in experiment [1] is recorded as “no PCR products were confirmed”. In addition, the “amplification with inosine-containing primers” value with Psychrobacter DNA is listed as “not amplified”. In addition, the “amplification of bisulfite-treated DNA” value in experiment [2] is recorded as “not amplified”.
